Reference: PMC10707181, “Neuronal Scaffold Protein ARMS Interacts with Synaptotagmin-4 C2AB through the Ankyrin Repeat Domain with an Unexpected Mode” (International Journal of Molecular Sciences, 2023)

B1: Syt4 132–425 [human] / ARMS ankyrin repeats 1–11 (R1-11, residues 1–365) [rat] (parent)
chain 1: MSVLISQSVINYVEEENIPALKALLEKCKDVDERNECGQTPLMLAAEQGNVEIVKELLKNGANCNLEDLDNWTALISASKEGHIHIVEELLKSGASLEHRDMGGWTALMWACYKGRTDVVELLLSHGANPSVTGLYSVYPIIWAAGRGHADIVHLLLQNGAKVNCSDKYGTTPLVWAARKGHLECVKHLLAMGADVDQEGANSMTALIVAVKGGYTQSVKEILKRNPNVNLTDKDGNTALMIASKEGHIEIVQDLLDAGTYVNIPDRSGDTVLIGAVRGGHVEIVRALLQKYADIDIRGQDNKTALYWAVEKGNATMVRDILQCNPDTEICTKDGETPLIKATKMRNIEVVELLLDKGAKVSAVD
chain 2: ESVSPESLKSSTSLTSEEKQEKLGTLFFSLEYNFERKAFVVNIKEARGLPAMDEQSMTSDPYIKMTILPEKKHKVKTRVLRKTLDPAFDETFTFYGIPYTQIQELALHFTILSFDRFSRDDIIGEVLIPLSGIELSEGKMLMNREIIKRNVRKSSGRGELLISLCYQSTTNTLTVVVLKARHLPKSDVSGLSDPYVKVNLYHAKKRISKKKTHVKKCTPNAVFNELFVFDIPCEGLEDISVEFLVLDSERGSRNEVIGQLVLGAAAEGTGGEHWKEICDYPRRQIAKWHVLCDG

Variants of: B1
Assay: ITC
Details: with ARMS ankyrin repeats 1–11 (R1-11, residues 1–365) [rat]

Compared with chain 2 ESVSPESLKSSTSLTSEEKQEKLGTLFFSLEYNFERKAFVVNIKEARGLPAMDEQSMTSDPYIKMTILPEKKHKVKTRVLRKTLDPAFDETFTFYGIPYTQIQELALHFTILSFDRFSRDDIIGEVLIPLSGIELSEGKMLMNREIIAANVRKSSGRGELLISLCYQSTTNTLTVVVLKARHLPKSDVSGLSDPYVKVNLYHAKKRISKKKTHVKKCTPNAVFNELFVFDIPCEGLEDISVEFLVLDSERGSRNEVIGQLVLGAAAEGTGGEHWKEICDYPRRQIAKWHVLCDG [chain 2 K148A R149A], chain 2 ESVSPESLKSSTSLTSEEKQEKLGTLFFSLEYNFERKAFVVNIKEARGLPAMDEQSMTSDPYIKMTILPEKKHKVKTRVLRKTLDPAFDETFTFYGIPYTQIQELALHFTILSFDRFSRDDIIGEVLIPLSGIELSEGKMLMNREIIAANVAKSSGRGELLISLCYQSTTNTLTVVVLKARHLPKSDVSGLSDPYVKVNLYHAKKRISKKKTHVKKCTPNAVFNELFVFDIPCEGLEDISVEFLVLDSERGSRNEVIGQLVLGAAAEGTGGEHWKEICDYPRRQIAKWHVLCDG [chain 2 K148A R149A R152A] is higher in ratio to parent: 0.8 for the first, 1.6 for the second.

chain 2 ESVSPESLKSSTSLTSEEKQEKLGTLFFSLEYNFERKAFVVNIKEARGLPAMDEQSMTSDPYIKMTILPEKKHKVKTRVLRKTLDPAFDETFTFYGIPYTQIQELALHFTILSFDRFSRDDIIGEVLIPLSGIELSEGKMLMNREIIKRNVAASSGRGELLISLCYQSTTNTLTVVVLKARHLPKSDVSGLSDPYVKVNLYHAKKRISKKKTHVKKCTPNAVFNELFVFDIPCEGLEDISVEFLVLDSERGSRNEVIGQLVLGAAAEGTGGEHWKEICDYPRRQIAKWHVLCDG [chain 2 R152A K153A] and chain 2 ESVSPESLKSSTSLTSEEKQEKLGTLFFSLEYNFERKAFVVNIKEARGLPAMDEASMTSDPYIKMTILPEKKHKVKTRVLRKTLDPAFDETFTFYGIPYTQIQELALHFTILSFDRFSRDDIIGEVLIPLSGIELSEGKMLMNREIIKRNVRKSSGRGELLISLCYQSTTNTLTVVVLKARHLPKSDVSGLSDPYVKVNLYHAKKRISKKKTHVKKCTPNAVFNELFVFDIPCEGLEDISVEFLVLDSERGSRNEVIGQLVLGAAAEGTGGEHWKEICDYPRRQIAKWHVLCDG [chain 2 Q55A] are the same in ratio to parent: 0.3 for the first, 0.3 for the second.

chain 2 ESVSPESLKSSTSLTSEEKQEKLGTLFFSLEYNFERKAFVVNIKEARGLPAMDEQSMTSDPYIKMTILPEKKHKVKTRVLRKTLDPAFDETFTFYGIPYTQIQELALHFTILSFDRFSRDDIIGEVLIPLSGIELSEGKMLMNREIIKRNVRASSGRGELLISLCYQSTTNTLTVVVLKARHLPKSDVSGLSDPYVKVNLYHAKKRISKKKTHVKKCTPNAVFNELFVFDIPCEGLEDISVEFLVLDSERGSRNEVIGQLVLGAAAEGTGGEHWKEICDYPRRQIAKWHVLCDG [chain 2 K153A] and chain 2 ESVSPESLKSSTSLTSEEKQEKLGTLFFSLEYNFERKAFVVNIKEARGLPAMDEQSMTSDPYIKMTILPEKKHKVKTRVLRKTLDPAFDETFTFYGIPYTQIQELALHFTILSFDRFSRDDIIGEVLIPLSGIELSEGKMLMNREIIKRNVAKSSGRGELLISLCYQSTTNTLTVVVLKARHLPKSDVSGLSDPYVKVNLYHAKKRISKKKTHVKKCTPNAVFNELFVFDIPCEGLEDISVEFLVLDSERGSRNEVIGQLVLGAAAEGTGGEHWKEICDYPRRQIAKWHVLCDG [chain 2 R152A] are the same in ratio to parent: 0.3 for the first, 0.3 for the second.

In the case of chain 2 ESVSPESLKSSTSLTSEEKQEKLGTLFFSLEYNFERKAFVVNIKEARGLPAMDEQSMTSDPYIKMTILPEKKHKVKTRVLRKTLDPAFDETFTFYGIPYTQIQELALHFTILSFDRFSRDDIIGEVLIPLSGIELSEGKMLMNREIIKRNVRKSSGAGELLISLCYQSTTNTLTVVVLKARHLPKSDVSGLSDPYVKVNLYHAKKRISKKKTHVKKCTPNAVFNELFVFDIPCEGLEDISVEFLVLDSERGSRNEVIGQLVLGAAAEGTGGEHWKEICDYPRRQIAKWHVLCDG [chain 2 R157A], the ratio to parent is reported as 0.8.

Same assay, conditions: with Syt4 132–425 [human]

chain 1 MSVLISQSVINYVEEENIPALKALLEKCKDVDERNECGQTPLMLAAEQGNVEIVKELLKNGANCNLEDLDNWTALISASKEGHIHIVEELLKSGASLEHRDMGGWTALMWACYKGRTDVVELLLSHGANPSVTGLYSVYPIIWAAGRGHADIVHLLLQNGAKVNCSDKYGTTPLVWAARAGHLECVKHLLAMGADVDQEGANSMTALIVAVKGGYTQSVKEILKRNPNVNLTDKDGNTALMIASKEGHIEIVQDLLDAGTYVNIPDRSGDTVLIGAVRGGHVEIVRALLQKYADIDIRGQDNKTALYWAVEKGNATMVRDILQCNPDTEICTKDGETPLIKATKMRNIEVVELLLDKGAKVSAVD [chain 1 K180A] showed a ratio to parent of 0.9.
